These results are taken from IntAct's records for PubMed 24698088.

Sequences and labels used below:
B1: Serine protease HTRA2, mitochondrial (Homo sapiens), O43464 (parent)
chain: MAAPRAGRGAGWSLRAWRALGGIRWGRRPRLTPDLRALLTSGTSDPRARVTYGTPSLWARLSVGVTEPRACLTSGTPGPRAQLTAVTPDTRTREASENSGTRSRAWLAVALGAGGAVLLLLWGGGRGPPAVLAAVPSPPPASPRSQYNFIADVVEKTAPAVVYIEILDRHPFLGREVPISNGSGFVVAADGLIVTNAHVVADRRRVRVRLLSGDTYEAVVTAVDPVADIATLRIQTKEPLPTLPLGRSADVRQGEFVVAMGSPFALQNTITSGIVSSAQRPARDLGLPQTNVEYIQTDAAIDFGNSGGPLVNLDGEVIGVNTMKVTAGISFAIPSDRLREFLHRGEKKNSSSGISGSQRRYIGVMMLTLSPSILAELQLREPSFPDVQHGVLIHKVILGSPAHRAGLRPGDVILAIGEQMVQNAEDVYEAVRTQSQLAVQIRRGRETLTLYVTPEVTE
partner: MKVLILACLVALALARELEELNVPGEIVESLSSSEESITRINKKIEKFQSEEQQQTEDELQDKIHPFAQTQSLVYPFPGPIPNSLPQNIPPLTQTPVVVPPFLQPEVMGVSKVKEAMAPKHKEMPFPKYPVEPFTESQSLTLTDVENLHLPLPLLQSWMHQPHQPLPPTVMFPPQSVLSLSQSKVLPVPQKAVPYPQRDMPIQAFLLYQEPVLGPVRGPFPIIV

This assay covers variants of B1. The following applies: with casb_bovin CSN2, P02666.
Turning to G363A, the “effect of a mutation on the interaction” value is “decreasing interaction”.
